Test [1] deals with T1, pyroE Aβ3-16-biotin polypeptide (human, also: biotin, position not given here).
T1 peptide: [pGlu]FRHDSGYEVHHQK
In words: SPR (Biacore T200), biotinylated peptide on SA chip, antibody as analyte; antigen channel not given.

A further test has as its target T2, pyroE Aβ3-42 peptide (human, pyroglutamate derived from glutamic acid at the third amino acid position of Aβ (N-terminus of the peptide)).
T2 construct: Synthetic peptide; It lacks the first two N-terminal residues of Aβ; also called pyroglutamate-modified β-amyloid
Description: graded binding, chimeric antibody (assay not named; ELISA in Example 1). Background: In an ELISA, binding on a coated surface is turned into a signal by an enzyme label.

The next test concerns the target T3, Aβ1-42 monomer (human).
T3 construct: Preparation of the monomer is not described
Described as above.

Test [2] deals with T4, Aβ1-42 protofibril (human).
T4 construct: also called amyloid protofibril
T4 sequence (peptide, as listed by the source): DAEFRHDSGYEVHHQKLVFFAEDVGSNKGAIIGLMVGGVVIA
In words: SPR (Biacore T200), protofibril on CM5 chip, antibody as analyte.

In test [3] the target is T4, Aβ1-42 protofibril. Description: graded binding, chimeric antibody (assay not named; ELISA in Example 1).

Where no end group is shown, it is not given here. [ ]: non-standard residue; d: D form. pGlu = O=C1CC[C@@H](C(=O)O)N1

A word on the Kd: it is the constant that tells how readily two partners part at equilibrium. High values mean a looser complex, low ones a tighter complex. By koff is commonly meant a measure of how fast the partners let go of each other. The low end stands for a long-lived complex, the high end for a short-lived complex. The term kon denotes a measure of how fast the partners come together. Low values mean slower complex formation, high ones faster complex formation.

T2 sequence (peptide, as listed by the source): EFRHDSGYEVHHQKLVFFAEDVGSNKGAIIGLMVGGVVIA

B1: 151N5 (antibody, V domains shown)
VH: EVQLVESGGGLVKPGGSLKLSCAASGFTFSDFYMYWVRQTPEKRLEWVATISDGGRYTYYPDRLKGRFTISRNIAKNNLYLQMSSLKSEDTAMYYCARGRSTMITTTRNYFALDYWGQGTSVTVSS
VL: DIQMTQSSSSFSVSLGDRVTITCKASEDIYNRLAWYQQKPGDAPRLLISGAIRLETGVPSRFSGSGSGKDYTLSITSLQTEDGATYYCQQYWRTPLTFGAGIKLELK
notes: Chimeric (parent) antibody; the constant region of the chimeric form is not specified
For B1, in test [1], the dissociation constant (Kd) is 291 pM, the koff came to 0.000319 s⁻¹ and the kon is 1.1e+06 M⁻¹ s⁻¹. Besides, the binding result in the test with pyroE Aβ3-42 peptide is reported as “binds”.

B2: 174J17 (antibody, V domains shown)
VH: EVQLVESGGGLVKPGGSLKLSCAASGFTLSDYYMYWVRQTPEKRLEWVATISDGGRYTYYPDSVKGRFTISRDIAKNNLYIQMSSLRSEDTAMYYCARGRSTMITTTRNYLALDYWGQGTSVTVSS
VL: DIQMTQSSSSFSVSVGDRVTVTCKASEDIYNRLAWYQQRPGNAPRLLISGATSLETGVPSRFSGSGSGKDYILSITSLQTEDVGTYYCQQYWRTPLTFGEGTKLELK
notes: Chimeric antibody; the constant region of the chimeric form is not specified
In the case of B2, the binding result with pyroE Aβ3-42 peptide is listed as “binds”.

B3: 200O1 (antibody, V domains shown)
VH: QVQLKESGPGLVAPSQSLSITCTVSGFSLSRYIVHWYRQPPGKGLEWLGMIWGGGRIDYNSALKSRLSISKDNSKSQVFLKMNSLQTDDTAMYYCARNFGENAEAYWGQGTLVTVSA
VL: DIQMTQTTSSLSASLGDRVTITCRASQDINIYLNWYQQKPDGVVKLLIYYTSRLHSGVPSRFSGSGSGTDFSLTISNLEQEDIATYFCQQGHTLPYTFGGGTKLEIK
notes: Chimeric (parent) antibody; the constant region of the chimeric form is not specified; also called 20001
In test [1], B3 came in with a Kd of 0.0716 pM, a koff of 5.44e-08 s⁻¹ and a kon of 760000 M⁻¹ s⁻¹. In addition, the binding result in the test with pyroE Aβ3-42 peptide was “binds”.

B4: 6B5 (antibody, V domains shown)
VH: EVQLQQSGAELVKPGASVKLSCKASGYTFTTYWMHWVKQRPGQGLEWIGEIDPSDSYTNYNQKFKGKATLTVDKSSSTAYMQLSSLTSEDSAVYYCARSFHGNFFVYWGQGTLVTVSA
VL: QIVLTQSPAIMSASPGEKVTITCSASSSVSYMHWFQQKPGTSPKLWIYSTSNLASGVPARFSGSGSGTSYSLTISRMEAEDAATYYCQQRSSYPLTFGAGTKLELK
notes: as for B1
For B4, in the test with pyroE Aβ3-42 peptide, the binding result is given as “binds”. Moreover, the binding result in the test with Aβ1-42 monomer is “binds”. In the test with Aβ1-42 protofibril [2], this molecule returned a Kd of 1710 pM, a koff of 0.00196 s⁻¹ and a kon of 1.15e+06 M⁻¹ s⁻¹.

B5: 11G10 (antibody, V domains shown)
VH: EVQLQQSGAEIVKPGASVKLSCKASGYTFTSYWMHWVKQRPGQGLEWIGEIDPSDSYTNYNQKFKGKATLTVDKSSSTAYMQLRSLTSEDSAVYYCARSFHGNLFVYWGQGTLVTVSA
VL: QIVLTQSPAIMSASPGEKVTITCSASSSVSYMHWFQQKPGTSPKLWIYSTSNLATGVPARFSGSGSGTSYSLTISRMEAEDAATYYCQQRSSYPLTFGAGTKLEIK
notes: as for B2
Consider B5, for which the binding result with Aβ1-42 protofibril [3], with pyroE Aβ3-42 peptide and in the test with Aβ1-42 monomer was “binds” throughout.

B6: 6C9 (antibody, V domains shown)
VH: QVQLQQSGAELVKPGASVKLSCKASGYTFTNYYVHWVKQRPGQGLEWIGEIDPSDSYSNYNQKFKGKATLTVDKSSSTAYMQLSSLTSEDSAVYYCARSFHGNFFVYWGQGTLVTVSA
VL: QIVLTQSPAIMSASLGEEITLTCSASSSVSYMHWFQQKPGTSPKLWIYSTSNLASGVPARFSGSGSGTSYSLTISRMEAEDAATYYCQQRSSYPPTFGGGTKLEIK
notes: as for B2
B6: the binding result with Aβ1-42 protofibril [3], with pyroE Aβ3-42 peptide and with Aβ1-42 monomer was “binds” throughout.

The record behind these values is EP4768503A1 (Keymed Biosciences (Chengdu) Co., Ltd., dated 2026).
